Data published in patent US20110165623A1.

What was measured:
[1] = target: purified recombinant mature TGFβ1 (expressed in CHO cells from the modified porcine TGFβ1 cDNA) (porcine) (UniProt P07200); experiment: surface plasmon resonance, steady state response, double reciprocal plot; x axis printed as 1/[TβRII] (µM-1), y axis 1/Binding RU
[2] = target: purified recombinant mature TGFβ1 (expressed in CHO cells from the modified porcine TGFβ1 cDNA) (porcine) (UniProt P07200); experiment: SPR (BIAcore 3000); TGFβ1 immobilised on a CM5 chip, TβRII 150 nM to 0.6 nM as analyte; steady state, linear regression of 1/Response versus 1/C; TGFβ1 immobilised on the chip, TβRII as analyte; steady state

UniProt P07200, sequence (P07200 279-390): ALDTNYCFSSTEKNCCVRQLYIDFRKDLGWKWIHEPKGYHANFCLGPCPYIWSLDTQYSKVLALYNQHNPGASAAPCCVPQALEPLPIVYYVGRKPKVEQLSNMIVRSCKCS

## TGFβ1 type II receptor (residues 22-136), refolded from inclusion bodies (from UniProt P37173 45-159)
[1]
  intercept of the linear regression of 1/Binding RU against 1/[TβRII]: 0.00102
[2]
  Kd: 55 nM
